T1: IL13Rα2 deletion mutant D1-1c (15 residues …, 57-71, deleted) (human, UniProt Q14627 27-343)
T1 construct: also called 突变的IL13Rα2蛋白的D1-1c
T1 sequence: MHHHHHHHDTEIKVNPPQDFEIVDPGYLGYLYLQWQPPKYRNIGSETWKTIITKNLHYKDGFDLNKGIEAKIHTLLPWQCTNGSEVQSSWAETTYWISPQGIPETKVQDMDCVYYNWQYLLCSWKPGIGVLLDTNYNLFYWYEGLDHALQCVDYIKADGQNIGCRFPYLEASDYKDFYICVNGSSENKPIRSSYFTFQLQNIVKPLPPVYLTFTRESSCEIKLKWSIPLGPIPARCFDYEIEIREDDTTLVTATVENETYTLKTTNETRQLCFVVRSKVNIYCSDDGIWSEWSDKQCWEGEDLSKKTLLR

T2: IL13Rα2 glycine-scan mutant EP1 (human, UniProt Q14627 27-343, limits assumed)
T2 chain: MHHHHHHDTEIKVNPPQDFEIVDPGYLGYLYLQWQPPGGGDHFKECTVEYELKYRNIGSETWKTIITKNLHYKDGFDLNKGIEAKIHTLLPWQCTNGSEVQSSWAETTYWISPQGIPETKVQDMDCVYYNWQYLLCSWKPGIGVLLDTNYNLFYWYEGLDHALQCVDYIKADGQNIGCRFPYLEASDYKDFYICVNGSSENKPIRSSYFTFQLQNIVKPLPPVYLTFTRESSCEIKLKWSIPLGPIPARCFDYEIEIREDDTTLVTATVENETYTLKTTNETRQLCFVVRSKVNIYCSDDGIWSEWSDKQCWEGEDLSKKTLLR

T3: IL13Rα2 glycine-scan mutant EP2 (human, UniProt Q14627 27-343)
T3 construct: The changed residues (60-62) are inferred in the same way as for EP1
T3 chain: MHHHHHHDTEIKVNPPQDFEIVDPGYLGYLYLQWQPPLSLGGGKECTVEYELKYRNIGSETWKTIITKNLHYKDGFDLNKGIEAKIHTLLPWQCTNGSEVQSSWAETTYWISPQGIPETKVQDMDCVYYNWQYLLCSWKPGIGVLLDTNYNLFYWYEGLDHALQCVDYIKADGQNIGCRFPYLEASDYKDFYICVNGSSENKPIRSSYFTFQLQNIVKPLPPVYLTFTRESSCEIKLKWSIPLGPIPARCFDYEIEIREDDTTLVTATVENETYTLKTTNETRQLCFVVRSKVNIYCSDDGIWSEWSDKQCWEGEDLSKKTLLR

T4: IL13Rα2 glycine-scan mutant EP3 (human, UniProt Q14627 27-343)
T4 construct: The changed residues (63-65) are inferred in the same way as for EP1
T4 chain: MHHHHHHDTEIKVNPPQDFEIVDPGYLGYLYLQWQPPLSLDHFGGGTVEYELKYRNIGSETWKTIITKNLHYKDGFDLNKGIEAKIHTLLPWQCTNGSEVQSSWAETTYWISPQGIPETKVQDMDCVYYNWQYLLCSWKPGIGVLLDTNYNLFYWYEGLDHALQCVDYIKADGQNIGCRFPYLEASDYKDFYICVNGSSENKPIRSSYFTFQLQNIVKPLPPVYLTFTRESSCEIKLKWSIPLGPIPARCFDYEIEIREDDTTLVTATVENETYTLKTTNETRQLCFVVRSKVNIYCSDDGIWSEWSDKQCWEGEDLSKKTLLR

T5: IL13Rα2 expressed in lung cancer cells A549 and H460 (fixed, permeabilised cells) (UniProt Q14627 27-380, limits assumed)
T5 construct: whole, on cells; A549 and H460 are human lung cancer lines; also called A549和H460细胞中的IL13Rα2
T5 sequence (looked up): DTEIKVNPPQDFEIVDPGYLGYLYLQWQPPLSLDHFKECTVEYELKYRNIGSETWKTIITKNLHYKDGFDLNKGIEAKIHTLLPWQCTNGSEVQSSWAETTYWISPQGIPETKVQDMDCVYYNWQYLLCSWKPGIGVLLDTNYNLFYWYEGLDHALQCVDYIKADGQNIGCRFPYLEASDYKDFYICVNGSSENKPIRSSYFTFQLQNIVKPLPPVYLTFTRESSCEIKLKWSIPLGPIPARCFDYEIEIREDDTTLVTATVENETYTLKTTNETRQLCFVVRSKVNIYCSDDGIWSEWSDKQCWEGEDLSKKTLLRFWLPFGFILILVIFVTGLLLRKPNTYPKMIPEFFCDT

T6: IL13Rα2 antigen with His tag, expressed from pMAL in E. coli (IL13Rα2-HIS) (human) (UniProt Q14627)
T6 sequence: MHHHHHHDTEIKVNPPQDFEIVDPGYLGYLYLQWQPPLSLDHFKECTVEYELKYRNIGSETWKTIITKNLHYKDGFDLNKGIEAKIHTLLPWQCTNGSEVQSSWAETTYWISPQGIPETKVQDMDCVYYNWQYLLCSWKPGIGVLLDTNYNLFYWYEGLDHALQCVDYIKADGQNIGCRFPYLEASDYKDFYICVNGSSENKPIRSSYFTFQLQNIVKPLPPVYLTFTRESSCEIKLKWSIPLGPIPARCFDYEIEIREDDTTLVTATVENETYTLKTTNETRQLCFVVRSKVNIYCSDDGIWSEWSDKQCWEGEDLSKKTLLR

T7: IL13Rα2 antigen with His tag, expressed from pMAL in E. coli (IL13Rα2-HIS) (human, UniProt Q14627 27-343)
T7 construct: Purified on Ni-NTA; also called IL13Rα2抗原; pMAL-IL13Rα2
T7 sequence: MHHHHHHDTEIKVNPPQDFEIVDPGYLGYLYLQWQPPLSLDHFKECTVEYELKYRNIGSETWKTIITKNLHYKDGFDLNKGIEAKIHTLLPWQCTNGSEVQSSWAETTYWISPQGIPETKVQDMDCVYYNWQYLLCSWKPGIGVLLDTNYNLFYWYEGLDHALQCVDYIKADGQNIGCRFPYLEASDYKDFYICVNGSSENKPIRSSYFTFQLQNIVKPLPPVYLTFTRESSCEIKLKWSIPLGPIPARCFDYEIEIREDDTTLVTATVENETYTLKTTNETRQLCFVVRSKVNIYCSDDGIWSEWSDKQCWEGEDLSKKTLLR


Experiments:
[1] = target: T1, IL13Rα2 deletion mutant D1-1c (15 …); assay: Western blot
[2] = target: T2, IL13Rα2 glycine-scan mutant EP1; assay: Western blot, glycine scan mutants
[3] = target: T3, IL13Rα2 glycine-scan mutant EP2; assay: Western blot, glycine scan mutants
[4] = target: T4, IL13Rα2 glycine-scan mutant EP3; assay: Western blot, glycine scan mutants
[5] = target: T5, IL13Rα2 expressed in lung cancer cells …; assay: immunofluorescence on fixed, permeabilised cells
[6] = target: T6, IL13Rα2 antigen with His tag, expressed from pMAL in E. coli (IL13Rα2-HIS) (human); assay: indirect ELISA, antigen coated at 3 μg/ml, serial dilutions of the antibody
[7] = target: T7, IL13Rα2 antigen with His tag, expressed …; assay: Western blot (Fig. 24)

Row | binding result [1] | binding result [2] | binding result [3] | binding result [4] | binding result [5] | 效价 (titer) (fold dilution) [6] | binding result [7] | Binder
1 | no binding | no binding | no binding | no binding | binds | > 10000 | – | anti-IL13Rα2 monoclonal antibody mAb15D8 (mouse, from hybridoma) (antibody, mouse IgG1, kappa, V domains shown, Purified on Protein G; also called m15D8; 单克隆抗体15D8) VH: QVTLKESGPGILQPSQTLSLTCSFSGFSLSPSGMGVSWIRQPSGKGLEWLAHIYWDDDKLYNPSLKSRLTISKDTSSNQVFLKITSVDTADTATYYCARRGLRLRAMDYWGQGTSVTVSS VL: DIVLTQSPASLAVSLGQRATISCRASESVDSYGNSFMHWYQQKPGQPPKLLIYRTSNLESGIPARFSGSGSRTDFTLTINPVEADDVATYYCQQSNEDPFTFGSGTKLEIKR
2 | – | – | – | – | – | – | binds | recombinantly expressed monoclonal antibody mAb15D8 (293F cells transiently transfected with p15D8MusE) (antibody, mouse IgG1, kappa, V domains shown, also called 重组表达单克隆抗体mAb15D8; 重组表达抗体) VH: QVTLKESGPGILQPSQTLSLTCSFSGFSLSPSGMGVSWIRQPSGKGLEWLAHIYWDDDKLYNPSLKSRLTISKDTSSNQVFLKITSVDTADTATYYCARRGLRLRAMDYWGQGTSVTVSS VL: DIVLTQSPASLAVSLGQRATISCRASESVDSYGNSFMHWYQQKPGQPPKLLIYRTSNLESGIPARFSGSGSRTDFTLTINPVEADDVATYYCQQSNEDPFTFGSGTKLEIKR
